In the DeepSol protein solubility set:

Assay: soluble on expression in E. coli; label from the status in PepcDB or PDB records

Sequence | soluble on expression in E. coli
MAHHHHHHMHACVAAIAMGEVGVYDDQRSSGQEISLAAAAAAGVQYARSSRTAFSCTSKSARQGGGGAVPIENLLPPLIEQPEKSLRAARGDTGAAITEDERAAIAMETWEHYMATAREATSAEGASMMPSATAAATMMSSASCANAAHSCTSAVAAEAPLVPIRSFPDALCALIERCTATPLVCLTLSDQQCQTTAVRDLLRALLTIMQRIEDSAVAAIDCEIALASHSSSSGHHTPVAATAALDLQAVRLAAVKGISRVLTTYLDGADGSAQPPTKASETFTAGLGHLDILSVFEDVVHQWAHVLTVLERGKELIGASAGVGKGSDVKAEDDLSGVPESPQGHRSGKDGTGAAAQLHWVLRIAYQIIAAEQREASRGSAEAAPRVRLLPPLLVPVALRTLSLITTVIPLVCRPASYVQLCVDVLWGASLLTPSESSRQLMYGSMGVAGLAGASNGSCEGEADVSRGAEASPPAMDLFLALLHQFNEGHSAAHRELRDDLVCLFAFLLRCDIQYVENKLVAQSCRAEWSPTNVFGVNSAVSPPPRLRSKLTPRRSISTSPLWRRSTLWRRCCSRQRAGPNSQRRCTRPQPQPQRRFSPPTSIEANLLR | not soluble
MANLTEKFLRIFARRGKSIILAYDHGIEHGPADFMDNPDSADPEYILRLARDAGFDGVVFQRGIAEKYYDGSVPLILKLNGKTTLYNGEPVSVANCSVEEAVSLGASAVGYTIYPGSGFEWKMFEELARIKRDAVKFDLPLVVESFPRGGKVVNETAPEIVAYAARIALELGADAMKIKYTGDPKTFSWAVKVAGKVPVLMSGGPKTKTEEDFLKQVEGVLEAGALGIAVGRNVWQRRDALKFARALAELVYGGKKLAEPLNV | soluble
MGSDKIHHHHHHMKFSKLADQVWGEEPDDQVRSFVFMSNLDAQETANTMDVSVSVERIHADLCGNTELASELHYTPDEWDEAQGWVKINYPLIDDTASASLDVVLDATFQPLPGQPFEGEALTLIDALLHHAENVAASNPWKRTTFHTAHMHPPGSNADCDYCLVLQRRGYVKAHEEIQQTIPLPSGDWSAGEFTVVDVEGTAFPSALIPSIVELQHRAALDVPHGNLSVAPAQWDEHRLAQQSERILKTGTKLFTVLFAEGSTVAAMSSIAIPPGSNPDIAEQGLTIVHPDFRGRGLGTAVKLAGLSLLSRCHPEIQRVATSNAVDNHAMLAINRSIGATEIARTTLWEKKL | not soluble
MVTPSLRLVFVKGPREGDALDYKPGSTIRVGRIVRGNEIAIKDAGISTKHLRIESDSGNWVIQDLGSSNGTLLNSNALDPETSVNLGDGDVIKLGEYTSILVNFV | soluble
MGVPIGDLVPRKEIDLENLYGKKIAIDALNAIYQFLSTIRQEDGTPLMDSKGRITSHLSGLFYRTINLMEAGIKPAYVFDGKPPEFKRKELEKRREAREEAELKWKEALAKGNLEEARKYAQRATKVNEMLIEDAKKLLQLMGIPIIQAPSEGEAQAAYMASKGDVYASASQDYDSLLFGAPRLIRNLTITGKRKMPGKDVYVEIKPELVVLDEVLKELKITREKLIELAILVGTDYNPGGVKGIGPKKALEIVRYSRDPLAKFQRQSDVDLYAIKEFFLNPPVTNEYSLSWKEPDEEGILKFLCDEHNFSEERVKNGIERLKKAIKAGRQSTLESWFVKKKP | soluble
MTAFEEFGIIPELSDALSSLNWTLPTAVQSEAIPAILGGADALIAAETGSGKTGAFSLPIAQIVWERRKSAEKSQNSGQKPENSREFQLNREDRDVSLQIDKTGLNCESRVAKEWHGARATAGLYGNGKYYYEVTVTRDGLCRVGWATLSGSLKIGTDFESFGYGGTGKKSFGKKFDDYGTSFTTNDVLGCFLDLDELKIWWSKNGVQFPVAYQIDKKFKTAATCLYPAILCQNSGLGVNFGGSAAFKYPPGTQYVAVAQAEDGNLKWWSAAEQLSIDSSTPLCVILEPTRELVQQTFQNIQTFASVLDSPKIRCVTLAAGENMNQILRTLETGCDIVVGTPSRVFDLIHTGKLATKNLQFVVIDEIDQFLAGKNNCAHQIESIFRVLPLVAQDGTRRQVIACSATLHNFEVCRFADRHMSFPQWIDLKGADCVSADVHHVVCHVDASEDKQWIRQMHQQVHLEDDHVHDGDQIRPGTTDKDTISLGTKILKGIYVVRAIHALQMDKAIVFCRTKQQCDHMEHFLQQNNLSAACLHGDRSAEERQSSLEGFKKGIIRFLVCSDVVARGLDVQGVPFVISVTLPDEKSMYVHRIGRVGRAERMGLSISLVSEYEEKAWYHKCRSRGVNCTNTKDISKGGCTIWLQEKKMLGEIEEHLGATISTVDSDFNVPVDEFDGKVVYGERRTGGANFDTHVLQLASSASQLADLETKMQLEYLNNNRHVFEIHSM | not soluble
MSGKTKRLMVMAGGTGGHVFPGLAVAHHLMAQGWQVRWLGTADRMEASLVPQHGIEIDFIKISGLRGKGLMAQLTAPIRIYRAVRQAQKIMRDYQPNVVLGMGGYVSGPGGLAAWLCGVPVVLHEQNGIAGLTNRWLARIAKKVLQAFPGAFPNADVVGNPVRTDVLALPLPAVRLSGREGPIRVLVIGGSQGARILNQTLPLVAASLGEQITLWHQVGKGALPEVSQAYQQAGQAGHLVVEFIDDMAAAYAWADVVVCRSGALTVSEVAAAGLPAIFVPFQHKDRQQYWNALPLEKAGAAKIIEQPQFTATSVSSLLASWDRATLLSMAERARSVAIPDATERVAAEVVAASKSA | not soluble
MEKFVLSLDEGTTSARAIIFDRESNIHGIGQYEFPQHYPRPGWVEHNPEEIWDAQLRAIKDAIQSARIEPNQIAAIGVTNQRETTLVWDKDGKPLYNAIVWQCRRTAEMVEEIKREYGTMIKEKTGLVPDAYFSASKLKWLLDNVPGLREKAEKGEVMFGTVDTFLIYRLTGEHVTDYSNASRTMLFNIKKLDWDDELLELFDIPESVLPEVRESSEVYGYTKKELLGAEIPVSGDAGDQQAALFGQAAFEAGMVKATYGTGSFILVNTDKMVLYSDNLLTTIAWGLNGRVSYALEGSIFVTGAAVQWLRDGIKIIKHASETEELATKLESNEGVYFVPAFVGLGAPYWDQFARGIIIGITRGTGREHLARATLEAIAYLTRDVVDEMEKLVQIKELRVDGGATANDFLMQFQADILNRKVIRPVVKETTALGAAYLAGLAVDYWADTREIAELWKAERIFEPKMDEKTRERLYKGWKEAVKRAMGWAKVVDSAKSN | soluble
GPGSMLRGTRLMLMMQLHSLPTPNPSCYTFHIPSSTYDNFIPDGQTCDVAHMGLAWVHPLSQGIFEQYPQEVASVFIAPRHTSITVHPHVDWNKLEWSISSFIGHYLVFTNACFPAAAEYALLEDDLVIHEDDSEVLQCIKELVREQVRPMVQRDGGDVKLLNFNEKTGVVSLAMLGACRTCPSSQNTLKDGVERLLKHFLPEVKEVVEAKGHAFYEEYGLLFDSEKALREEAARVDAVRRRKISIYTTAPLMPFEALNEPDGDE | not soluble
MSLEAKNTFDLSGGYVLPGFIDSHAHLLSTGLEQTRLNLFEYEAKIEAIDAIRRYAEKHDKVVAYRWDESRWRDDPTYITASDLDGIVKPVVAFRRDGHMAVANDQAMRSIGQHRPDGIFREEDMQMLDPLVKPGEEEYVQALQTAIGISASLGITGVRDIVDRATYDAYRRIKSNVRIFKVIYAEDLFAGFGSDPSDWGVKTFLDGSLGARTAAHEGWDTKNLKMSEQQFERFCEGTWSRNLPVAVHAIGDLAVRVAAETMHRHAGRQRNSIEHFELVEDGVLDIIDANTIVSAQPNFLEWAGHGGMYQDRLGESWLYRNNPYRDILDKGLKLAFGSDSMPLGPMYGIHYAVNSEFSQQRITFDEAVRSYSEAGSYLIGAENWIGRIETGYSADFAVFNERNIEDRRRLKEAKPLMTIVHGNTIYDASRVDEGHHHHHH | not soluble
SGCRCCKIIQSYLFDPVQVPSPGYVNEVNSCKLDEDDTDKLKGKWSSEVLVQKNDPQRQGSKKTESSSRTADPWEPCWPHQGPLPQGDAGGEHHACGVNGIGPAATPQPTGNSSPTQDDRGSWASTANTVPPTQPFLEGGGTRKQDCVLLASEGTQVMRNGDSRAPSEAESFALEVQDHVFQIPAPDYLQHWGPAGDNVDHNEKDCVFKNHTEDESLEGIQPPVGEHGLNTPFSVRRSWDSLNEDVETEVLSICFNEKGPVHAMPVVDSGNRQEDTHGSDGDGDGEIVDEDAAVAEALAALEAATAGEDLDETD | soluble
MIKQDVICYEKEDVVKRNNINITGGGEKTVLLAHGFGCDQNMWRFMLPELEKQFTVIVFDYVGSGQSDLESFSTKRYSSLEGYAKDVEEILVALDLVNVSIIGHSVSSIIAGIASTHVGDRISDITMICPSPCFMNFPPDYVGGFERDDLEELINLMDKNYIGWANYLAPLVMGASHSSELIGELSGSFCTTDPIVAKTFAKATFFSDYRSLLEDISTPALIFQSAKDSLASPEVGQYMAENIPNSQLELIQAEGHCLHMTDAGLITPLLIHFIQNNQTRA | soluble
